Patent US20150196533A1, “METHOD FOR CONCURRENT TREATMENT OF PAIN AND DEPRESSION” (The General Hospital Corporation, priority 2012, published 2015)
“Also recorded” adds a separate entry of the source.

What was measured:
[1] = tested on: IDO1; assay: Intra-hippocampal microinjection in naive rats: hippocampal IDO1 mRNA (real-time PCR); assay type: in vivo, rat; settings: 0.1 μg once daily x 7 d into the left hippocampus of naive rats; P<0.05
Procedure: (§1) Under brief isoflurane anesthesia, a guide cannula (26 gauge, Plasticsone) was implanted just above the hippocampus (AP: −3.6 mm; left: +2.0 mm from Bregma; depth: −4.0 mm from skin) (Paxinos, G., and Watson, C. 1998. The rat brain in stertaxic coordinates. New York: Academic Press). An injection needle (33 gauge, Plasticsone) was inserted through the guide cannula and drug solution or vehicle (0.5 μl) was slowly injected over 5 min using a Hamilton syringe. Locations of the cannula placement were confirmed at the time of tissue harvest (data not shown).
Total RNA was isolated from hippocampal samples using TRIzol reagent (Invitrogen). Four μg of total RNA was used to synthesize the first strand cDNA using SuperScript III kit (Invitrogen). Four μl of cDNA was put into 20 μl vessel with 1 μl of 20× TaqMan Gene Expression Assay. Taqman Gene Expression Assays (Applied Biosystems) containing primers and a Taqman probe were used to quantify each gene of interest. The genes examined were IL-6 (Rn01410330 m1, M26744.1) and IDO1 (Rn00576778 m1, AF312699.1) for rats and IL-6 (Mm00446190 m1, X54542.1) and IDO1 (Mm00492586 m1, M69109.1) for mice. […] The RNA expression of GAPDH was measured as control.

[2] = tested on: naive rats; assay: Intra-hippocampal microinjection in naive rats: nociceptive and depressive behavior; assay type: in vivo, rat; settings: 0.1 μg once daily x 7 d into the left hippocampus of naive rats
Procedure: as §1
Animals were habituated to a test setting (30-min session) for three consecutive days. Thermal withdrawal threshold was assessed using the Hargreaves' apparatus and method (Hargreaves, K., et al., 1988. A new and sensitive method for measuring thermal nociception in cutaneous hyperalgesia. Pain 32:77-88). Mechanical withdrawal threshold was assessed using von Frey filaments (Tal, M., and Bennett, G. J. 1994. Extra-territorial pain in rats with a peripheral mononeuropathy: mechano-hyperalgesia and mechano-allodynia in the territory of an uninjured nerve. Pain 57:375-382).
FST was performed according to the original method by Porsolt et al (Porsolt, R. D., Le, P. M., and Jalfre, M. 1977. Depression: a new animal model sensitive to antidepressant treatments. Nature 266:730-732). The total duration of immobility (non-swimming) within a 5-min session was recorded as immobility scores (in seconds) and compared among groups.

B1: IL-6: exogenous IL-6 (recombinant rat IL-6), proinflammatory cytokine (protein, UniProt P20607 25-211, looked up)
Interleukin-6: FPTSQVRRGDFTEDTTHNRPVYTTSQVGGLITYVLREILEMRKELCNGNSDCMNSDDALSENNLKLPEIQRNDGCFQTGYNQEICLLKICSGLLEFRFYLEFVKNNLQDNKKDKARVIQSNTETLVHIFKQEIKDSYKIVLPTPTSNALLMEKLESQKEWLRTKTIQLILKALEEFLKVTMRSTRQT
[1]
  hippocampal IDO1 mRNA expression (FIG. 9H): increased IDO1 mRNA expression in the hippocampus; also recorded: up-regulated the hippocampal IDO1 mRNA expression
[2]; P<0.001
  depressive behavior in forced swimming test (FIG. 9G): induced depressive behavior in forced swimming test
[2]; P<0.01
  thermal hyperalgesia on the right hindpaw (FIG. 9F): induced
[2]; P<0.05 vs vehicle
  mechanical allodynia on the right hindpaw (FIG. 9E): induced
